Laboratory results reported in patent publication US9884910B2, “Anti-PDGF-C antibodies” (ThromboGenics NV, priority 2012, dated 2018).

B1: 29H1: murine monoclonal anti-PDGF-C antibody, IgG1 κ; VL SEQ ID NO:17, VH SEQ ID NO:21 (antibody, listed as Mus musculus, V domains shown)
VH: EVQLVESGGDLVKPGGSLKLSCAASGFTFSNYGMSWVRQTPDKRLEWVATIGSGGHYTYYPDSVKGRFTISRDSAKSTLYLQMSSLRSDDTAIYYCARQAPLWDCSDYWGQGTTLTVSS
VL: DVLMTQTPLSLPVSLGDQASISCRSNQSIVHSNGDTYLEWYLQKPGQSPNLLIYKVSNRFSGVPDRFSGSGSGTDFTLKISRVEAEDLGVYYCFQGSHVPPTFGGGTKLEIK
B2: Humanized mAb 29H1: humanized 29H1; VH SEQ ID NO:106, VL SEQ ID NO:107 (antibody, V domains shown)
VH: EVQLLESGGGLVQPGGSLRLSCAASGFTFSNYGMSWVRQTPGKGLEWVATIGSGGHYTYYPDSVKGRFTISRDNAKNTLYLQMNSLRAEDTAVYYCARQAPLWDCSDYWGQGTLLTVSS
VL: DVVMTQSPLSLPVTLGQPASISCRSSQTIVHSDGTTYLEWYLQKPGQSPRLLIYKVSNRFSGVPDRFSGSGSGTDFTLKISRVEAEDVGVYYCFQGSHVPPTFGQGTKLEIK
modifications: humanized variable heavy chain murine monoclonal antibody 29 H1; humanized variable light chain murine monoclonal antibody 29 H1

Key:
[1] = target: T1, PDGFRα activation by human PDGF-C (Homo sapiens, UniProt Q9NRA1); assay: PathHunter PDGFRα receptor tyrosine kinase assay in U2OS PDGFRα PLCG1 cells; type: cell-based
T1 construct: the growth factor domain of PDGF-C (amino acids 235-345 of human PDGF-C); purchased R&D Systems 1687-CC/CF; host or cells: ligand added to U2OS PDGFRα PLCG1 cells (DiscoveRx, assay 93-0823C3) that express the transfected receptor
Text: To evaluate the inhibitory activity of anti-human PDGF-C antibodies on PDGFRα activation by human PDGF-C, the PathHunter® receptor tyrosine kinase assay for PDGFRα (93-0823C3) from DiscoveRx® was used. […] A small complementing fragment of β-gal, the Prolink™ tag (PK) has been fused recombinantly to the intracellular C-terminus of the receptor tyrosine kinase PDGFRα. The larger portion of β-gal, termed EA for enzyme acceptor, is co-expressed with an SH2 (Src Homology 2) phosphotyrosine binding domain. Ligand-induced activation of the receptor results in dimerization and intra-cellular cross-phosphorylation of the receptor. Subsequently, the SH2 domain specifically binds the phosphorylated receptor resulting in the complementation of the two β-gal fragments PK and EA, and formation of a functional β-gal enzyme. Following addition of a β-gal substrate, an easily detectable chemiluminescent signal is produced which is directly correlated to receptor activation. The LumiLITE™ microplate reader is fully compatible with all EFC-based assays of DiscoveRx® and is therefore used.
For the PathHunter® PDGFRα, assay, U2OS PDGFRα, PLCG1 (phospholipase Cγ as the source of the SH2 domain) cells from DiscoveRx® were used. Frozen cells were stored in liquid nitrogen. Upon thawing, cells were resuspended in pre-warmed thawing medium (i.e. culture medium without the selection antibiotics Geneticin and Hygromycin B). After 48 hours of culture in a 5% CO2 incubator at 37° C., thawing medium was replaced by culture medium (MEM Eagle 1× (30-2003 from Invitrogen), 10% fetal bovine serum (SH30071.03 from Perbio Science), 1× Penicillin-Streptomycin-Glutamine (10378-016 from Invitrogen), 250 μg/ml Hygromycin B (10687-010 from Invitrogen), 500 μg/ml Geneticin (10131-035 from Invitrogen)). Once confluence was reached, cells were passaged with a ⅓ dilution every 2-3 days using Accutase (L11-007 from PAA). Cells were maintained in a non-confluent state during routine culture.
In the PathHunter® PDGFRα, assay, the U2OS PDGFRα, PLCG1 cells from DiscoveRx® cultured up to 10 passages were used. Cells were seeded at 20.000 cells in 100 μl per well in 96-well white culture-treated microplates with clear bottom (3610 from Corning). The PathHunter® Cell Plating 16 Reagent (93-0563R16 from DiscoveRx®) was employed as seeding medium. Following 24 hours of culture in 5% CO2 at 37° C., 25 μl of a 5-fold concentrated agonist solution in Cell Plating 16 Reagent was used per well to stimulate the cells. Recombinant human PDGF-C from R&D Systems (1687-CC/CF; Va1235-Gly345) was applied as agonist. After 3 hours incubation at room temperature, 60 μl of PathHunter® detection reagent (93-0001 from DiscoveRx®; 1 part Galacton Star® Substrate, 5 parts Emerald II™ Solution, and 19 parts of PathHunter® Cell Assay Buffer) was added. Cells were placed at room temperature and in the dark for another hour before luminescence was measured with the LumiLITE™ microplate reader. With GraphPad Prism® software, a non-linear regression analysis was performed using the obtained luminescent values in order to generate a sigmoidal agonist dose-response curve with variable slope. The EC50 (i.e. half maximal effective concentration) and EC80 value (i.e. the effective concentration that leads to 80% of the maximal response) for human PDGF-C was calculated.
To evaluate the inhibitory activity of anti-human PDGF-C antibodies on PDGFRα, activation by human PDGF-C, equal volumes of […] concentrated solutions of anti-human PDGF-C antibodies and the EC80 of human PDGF-C, prepared in Cell Plating 16 Reagent, were mixed and the assay was performed as described above. As positive controls, an anti-human PDGF-C polyclonal goat IgG antibody (AF1560 from R&D Systems) and recombinant human PDGFRα, Fc chimera (6765-PR from R&D Systems) were employed. […]

[2] = system: glioblastoma tumor, U118; assay: Antitumor effect against U118 glioblastoma xenograft; type: in vivo
Experimental: For the evaluation of anti-tumor activity of the antibodies, animals were weighed and tumors measured 2 times weekly using a caliper. Tumor weights were calculated using the formula mass (mg)=[length (mm)×width (mm)^2]/2. Antitumor activity evaluation was done at the single dose of 20 mg/kg. A dosage producing a 20% body weight loss (bwl) or 10% or more drug deaths, was considered an excessively toxic dosage. Animal body weights included the tumor weights. The primary efficacy end point is the tumor growth inhibition (% TGI). Changes in tumor volume for each treated (T) and control (C) are calculated for each tumor by subtracting the tumor volume on the day of first treatment (staging day) from the tumor volume on the specified observation day. The median ΔT is calculated for the treated group and the median ΔC is calculated for the control group. Then the ratio ΔT/ΔC is calculated and expressed as a percentage of TGI: ΔT=Tt−T0 ΔC=Ct−C0 % TGI=[1−(median(Tt−T0)/median(Ct−C0)]*100
The antitumor effect of 29H1, 5A2 and 16B1 was evaluated against a measurable glioblastoma tumor, U118, which express both PDGF-C and its receptor, PDGFRa, S.C. implanted in female SCID Beige mice. Control group was treated with PBS alone. The antibodies were administered by an intraperitoneal (IP) injection, and treatment started on day 28 post-tumor implantation and was performed twice a week.

[3] = target: T2, 15-mer, overlapping peptides covering the entire human PDGF-C molecule (Homo sapiens, UniProt Q9NRA1); assay: Epitope mapping ELISA on 15-mer overlapping peptides; type: binding; details: peptide coated 10 μg/mL; antibody 1 μg/mL
T2 construct: host or cells: chemical synthesis
Experimental: The binding of anti-PDGF-C antibodies to 15-mer, overlapping peptides covering the entire human PDGF-C molecule was assessed by ELISA. Antibodies included in this analysis are the five antibodies potently inhibiting activation of PDGF-Rα by PDGF-C, i.e. monoclonal antibodies 2D3, 5A2, 5H7, 16B1 and 29H1. Further included are two antibodies capable of binding to PDGF-C, but not or very poorly inhibiting activation of PDGF-Rα by PDGF-C, i.e. monoclonal antibodies 12E5 (IgG1) and 19F12 (IgG2b) (see Example 4). […] For all antibodies, it was confirmed that they bind to human PDGF-C and binding to full-length human PDGF-C was for all antibodies tested more efficient than binding to any of the peptides identified as described hereafter.
The indicated peptides where synthesized in an N-terminally biotinylated form and coated onto a neutravidin plate (Thermo Scientific, Cat. 15127) at a concentration of 10 μg/mL. The antibodies listed in the table were incubated in each well at a concentration of 1 μg/mL and, following washing, were then detected in a standard ELISA format using an appropriate, HRP-labeled secondary antibody (goat anti-mouse IgG-HRP for all antibodies except sc-80290, and goat anti-rat IgG-HRP for sc-80290). Each antibody was tested at least twice, and up to 4 times. A “+” in the table indicate that a signal to background >3 was found and confirmed at least once. The background signal was measured in the absence of peptide using both the primary and the secondary antibodies. Antibodies sc-80290 and MAB1560 were tested only against peptides 42-63 since this represents the fraction of the protein that was used as an immunogen.

[4] = target: T3, PDGF-C (Homo sapiens, UniProt Q9NRA1); assay: Surface Plasmon Resonance affinity of anti-PDGF-C antibodies for PDGF-C (Biacore 3000); type: binding; details: humanized antibodies; as in Example 3
T3 construct: the growth factor domain of PDGF-C (amino acids 235-345 of human PDGF-C); purchased R&D Systems 1687-CC/CF
Experimental: The different antibodies were each separately coated to a CM5 chip at a density of 1680 RU using standard amine chemistry. Different concentrations (200, 175, 150, 125, 100, 75, 50, 25, 12.5, 6.25, 3.125 & 0 nM) of PDGF-C (R&D Systems, Cat. 1687-CC/CF) were injected over the coated antibody for 5 min, then buffer was flowed for 10 min to monitor the dissociation of the captured antigen. The surface was regeneration between each run with a single injection of glycine-HCl, pH 2.5. Affinities were obtained by analyzing the sensorgrams with the help of the BIAevaluation 4.1 software assuming a 1:1 interaction. The experiment was performed with a Biacore 3000 instrument.
The affinity of the above-listed exemplary humanized anti-PDGF-C antibodies for PDGF-C was analysed (as in Example 3) and the humanized antibodies were subsequently assessed in the in vitro bioassay described in Example 4.

T1 sequence (Q9NRA1 235-345): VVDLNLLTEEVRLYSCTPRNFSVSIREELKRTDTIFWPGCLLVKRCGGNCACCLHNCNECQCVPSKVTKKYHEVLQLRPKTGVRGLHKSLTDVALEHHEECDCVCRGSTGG
T3 sequence (Q9NRA1 235-345): as above

Molecule	IC50 ([1]; Table 5 first IC50 column, PDGF-C at EC80, * average of 3 measurements) [pM]	IC50 ([1]; Table 5 second IC50 column (separate experiment), PDGF-C at EC80) [pM]	IC50 ([1]; Table 5 third IC50 column (separate experiment), PDGF-C at EC80) [pM]	tolerability / body weight loss ([2]; 20 mg/kg IP twice a week)	TGI (%) Day 53 ([2]; 20 mg/kg IP twice a week from day 28, day 53 post-tumor implantation) [%]	TGI (%) Day 56 ([2]; 20 mg/kg IP twice a week from day 28, day 56 post-tumor implantation) [%]	TGI (%) Day 60 ([2]; 20 mg/kg IP twice a week from day 28, day 60 post-tumor implantation) [%]	TGI (%) Day 63 ([2]; 20 mg/kg IP twice a week from day 28, day 63 post-tumor implantation) [%]	TGI (%) Day 67 ([2]; 20 mg/kg IP twice a week from day 28, day 67 post-tumor implantation) [%]	binding to peptide No 58 (SEQ ID NO: 96) VLQLRPKTGVRGLHK [3]	IC50 ([1]; humanized antibodies, * average of 3 measurements) [pM]	Kd [4] [pM]
B1	3450	870	240	well-tolerated with no tumor body weight loss	39.4	53.0	53.8	42.8	50.0	+ (A “+” in the table indicate that a signal to background >3 was found and confirmed at least once)	–	–
B2	–	–	–	–	–	–	–	–	–	–	8240	700
